# Reference: patent publication US20120316071A1 (published 2012)
# T1: rHuman Erythropoietin R/Fc Chimera, CF (R&D Systems Cat#963-ER) (human, UniProt P19235 25-250)
# T1 construct: Bought recombinant protein; also called EPO R; EPO R/Fc; not shown: Fc of the bought chimera
# T1 sequence (looked up): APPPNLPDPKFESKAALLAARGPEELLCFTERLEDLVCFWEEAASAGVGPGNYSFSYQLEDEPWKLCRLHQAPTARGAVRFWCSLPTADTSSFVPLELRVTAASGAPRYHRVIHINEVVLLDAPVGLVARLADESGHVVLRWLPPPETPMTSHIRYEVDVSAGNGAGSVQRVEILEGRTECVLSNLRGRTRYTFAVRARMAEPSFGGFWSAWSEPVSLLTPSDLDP
# T2: rHuman Erythropoietin R/Fc Chimera, CF (R&D Systems Cat#963-ER) (human, UniProt P19235 25-250)
# T2 construct: Bought recombinant Fc chimera; also called EPO R; EPO R/Fc; Fc part of the bought chimera not given
# T2 sequence (looked up): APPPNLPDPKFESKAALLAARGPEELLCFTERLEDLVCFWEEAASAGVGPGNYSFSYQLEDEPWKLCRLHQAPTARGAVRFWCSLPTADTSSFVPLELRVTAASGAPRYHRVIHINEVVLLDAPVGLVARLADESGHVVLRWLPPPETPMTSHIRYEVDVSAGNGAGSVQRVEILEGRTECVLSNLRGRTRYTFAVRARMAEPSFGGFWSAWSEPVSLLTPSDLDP
# T3: rHuman Erythropoietin R/Fc Chimera, CF (R&D Systems Cat#963-ER) (human, UniProt P19235 25-250)
# T3 construct: Bought reagent; also called EPO R; Epo R/Fc
# T3 sequence (looked up): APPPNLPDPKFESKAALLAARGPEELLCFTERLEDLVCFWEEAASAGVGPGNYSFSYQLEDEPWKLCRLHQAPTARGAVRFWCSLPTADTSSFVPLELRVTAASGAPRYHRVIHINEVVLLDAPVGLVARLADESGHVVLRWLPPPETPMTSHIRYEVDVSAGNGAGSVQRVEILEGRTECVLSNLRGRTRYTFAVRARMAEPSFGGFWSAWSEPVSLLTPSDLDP
# B1: Fab VH1-46_IGHD6-6*01_IGHJ1*01 S102A/S103P/S104F/H111F (APFF) & L6_IGKJ1*01 S92C (Fab, V domains shown)
# VH: QVQLVQSGAEVKKPGASVKVSCKASGYTFTSYYMHWVRQAPGQGLEWMGIINPSGGSTSYAQKFQGRVTMTRDTSTSTVYMELSSLRSEDTAVYYCAREEYAPFSAEYFQFWGQGTLVTVSS
# VL: EIVLTQSPATLSLSPGERATLSCRASQSVSSYLAWYQQKPGQAPRLLIYDASNRATGIPARFSGSGSGTDFTLTISSLEPEDFAVYYCQQRCNWPPWTFGQGTKVEIKR
# notes: Fab; also called APFF / S92C
# B2: Fab VH1-46_IGHD6-6*01_IGHJ1*01 S102A/S103P/S104F/H111F (APFF) & L6_IGKJ1*01 S92G (Fab, V domains shown)
# VH: QVQLVQSGAEVKKPGASVKVSCKASGYTFTSYYMHWVRQAPGQGLEWMGIINPSGGSTSYAQKFQGRVTMTRDTSTSTVYMELSSLRSEDTAVYYCAREEYAPFSAEYFQFWGQGTLVTVSS
# VL: EIVLTQSPATLSLSPGERATLSCRASQSVSSYLAWYQQKPGQAPRLLIYDASNRATGIPARFSGSGSGTDFTLTISSLEPEDFAVYYCQQRGNWPPWTFGQGTKVEIKR
# notes: Tested as a Fab made in E. coli; also called APFF / S92G; H:APFF & L6_IGKJ1*01 S92G
# B3: Fab VH1-46_IGHD6-6*01_IGHJ1*01 S102A/S103P/S104F (APF) & L6_IGKJ1*01 Y32S (Fab, V domains shown)
# VH: QVQLVQSGAEVKKPGASVKVSCKASGYTFTSYYMHWVRQAPGQGLEWMGIINPSGGSTSYAQKFQGRVTMTRDTSTSTVYMELSSLRSEDTAVYYCAREEYAPFSAEYFQHWGQGTLVTVSS
# VL: EIVLTQSPATLSLSPGERATLSCRASQSVSSSLAWYQQKPGQAPRLLIYDASNRATGIPARFSGSGSGTDFTLTISSLEPEDFAVYYCQQRSNWPPWTFGQGTKVEIKR
# notes: Fab format as for the parent (CH1 with His6/Flag tags, kappa CL); also called APF / Y32S
# Experiments:
# [1] = biological target: T1, rHuman Erythropoietin R/Fc Chimera, CF …; assay: MSD ECL multispot assay, antigen spotted on plate, Fab in solution; blank spot of this row 504
# [2] = biological target: T4, rHuman ErbB2/Fc Chimera, CF (R&D Systems Cat#1129-ER) (human, UniProt P04626 23-652); assay: as above
# T4 construct: Bought recombinant protein; not shown: Fc of the bought chimera
# [3] = biological target: T5, rHuman Notch-1/Fc Chimera, CF (R&D Systems Cat#3647-TK) (human, UniProt P46531 19-526); assay: as above
# T5 construct: Bought recombinant protein; not shown: Fc of the bought chimera
# [4] = biological target: T6, rHuman CD44/Fc Chimera, CF (R&D Systems Cat#3660-CD) (human, UniProt P16070 21-220); assay: as above
# T6 construct: Bought recombinant protein; not shown: Fc of the bought chimera
# [5] = biological target: T7, Recombinant Human DLL4 (R&D Systems Cat#1506-D4/CF) (human, UniProt Q9NR61 27-524); assay: as above
# T7 construct: Bought recombinant protein; also called delta-like protein 4; rHuman DLL4
# [6] = biological target: T8, rHuman IGF-1 sR (insulin-like growth factor-1 soluble receptor), CF (R&D Systems Cat#391-GR) (human, UniProt P08069 31-932); assay: as above
# T8 construct: Bought recombinant soluble receptor
# [7] = biological target: T9, rHuman EGF R/Fc Chimera, CF (R&D Systems Cat#344-ER) (human, UniProt P00533 25-645); assay: as above
# T9 construct: Bought recombinant protein; not shown: Fc of the bought chimera
# [8] = biological target: T10, rHuman HGF R/c-MET/Fc Chimera, CF (R&D Systems Cat#358-MT/CF) (human, UniProt P08581 25-932); assay: as above
# T10 construct: Bought recombinant protein; also called HGF R/Fc; not shown: Fc of the bought chimera
# [9] = biological target: T1, rHuman Erythropoietin R/Fc Chimera, CF …; assay: MSD ECL multispot assay, antigen spotted on plate, Fab in solution; blank spot of this row 348
# [10] = biological target: T4, rHuman ErbB2/Fc Chimera, CF (R&D …); assay: as above
# [11] = biological target: T5, rHuman Notch-1/Fc Chimera, CF (R&D …); assay: as above
# [12] = biological target: T6, rHuman CD44/Fc Chimera, CF (R&D Systems …); assay: as above
# [13] = biological target: T7, Recombinant Human DLL4 (R&D Systems …); assay: as above
# [14] = biological target: T8, rHuman IGF-1 sR (insulin-like growth …); assay: as above
# [15] = biological target: T9, rHuman EGF R/Fc Chimera, CF (R&D …); assay: as above
# [16] = biological target: T10, rHuman HGF R/c-MET/Fc Chimera, CF (R&D …); assay: as above
# [17] = biological target: T11, Recombinant Human DLL4 (R&D Systems Cat#1506-D4/CF) (human, UniProt Q9NR61 27-524); assay: ECL Multispot (MSD) binding assay, antigen spotted on plate, Fab in solution
# T11 construct: Bought recombinant human DLL4; also called delta-like protein 4; Delta-like 4
# [18] = biological target: T12, rHuman HGF R/c-MET/Fc Chimera, CF (R&D Systems Cat#358-MT/CF) (human, UniProt P08581 25-932); assay: as above
# T12 construct: Bought recombinant Fc chimera; also called HGF R/Fc; hepatocyte growth factor receptor; Fc part of the bought chimera not given
# [19] = biological target: T13, rHuman Notch-1/Fc Chimera, CF (R&D Systems Cat#3647-TK) (human, UniProt P46531 19-526); assay: as above
# T13 construct: Bought recombinant Fc chimera; Fc part of the bought chimera not given
# [20] = biological target: T14, rHuman ErbB2/Fc Chimera, CF (R&D Systems Cat#1129-ER) (human, UniProt P04626 23-652); assay: as above
# T14 construct: Bought recombinant Fc chimera; also called human epidermal growth factor 2 receptor; Fc part of the bought chimera not given
# [21] = biological target: T2, rHuman Erythropoietin R/Fc Chimera, CF …; assay: as above
# [22] = biological target: T15, rHuman P-Cadherin/Fc Chimera, CF (R&D Systems Cat#861-PC) (human, UniProt P22223 108-654); assay: as above
# T15 construct: Bought recombinant Fc chimera; Fc part of the bought chimera not given
# [23] = biological target: T16, rHuman CD44/Fc Chimera, CF (R&D Systems Cat#3660-CD) (human, UniProt P16070 21-220); assay: as above
# T16 construct: Bought recombinant Fc chimera; Fc part of the bought chimera not given
# [24] = biological target: T17, rHuman EGF R/Fc Chimera, CF (R&D Systems Cat#344-ER) (human, UniProt P00533 25-645); assay: as above
# T17 construct: Bought recombinant Fc chimera; also called epidermal growth factor receptor; Fc part of the bought chimera not given
# [25] = biological target: T18, rHuman IGF-1 sR, CF (R&D Systems Cat#391-GR) (human, UniProt P08069 31-932); assay: as above
# T18 construct: Bought recombinant soluble receptor; also called insulin-like growth factor-1 soluble receptor
# [26] = biological target: T19, rHuman IGF-1 sR, CF (R&D Systems Cat#391-GR) (human, UniProt P08069 31-932); assay: ECL Multispot (MSD) assay; antigen spotted on plate, Fab in solution;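 also: fab bound 1 h at 20 °C, detected by TAG-labelled antibody electrochemiluminescence, signal relative to each well's blank, ratio of 4 or more marks a hit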
# T19 construct: Bought soluble receptor; the column head 'IGF-1' means IGF-1 sR; also called insulin-like growth factor-1 soluble receptor
# [27] = biological target: T20, Recombinant Human DLL4 (R&D Systems Cat#1506-D4/CF) (human, UniProt Q9NR61 27-524); assay: as above
# T20 construct: Bought recombinant protein; also called delta-like protein 4; rHuman DLL4
# [28] = biological target: T21, rHuman ErbB2/Fc Chimera, CF (R&D Systems Cat#1129-ER) (human, UniProt P04626 23-652); assay: as above
# T21 construct: Bought reagent; also called human epidermal growth factor 2 receptor
# [29] = biological target: T22, rHuman Notch-1/Fc Chimera, CF (R&D Systems Cat#3647-TK) (human, UniProt P46531 19-526); assay: as above
# T22 construct: Bought reagent
# [30] = biological target: T23, rHuman CD44/Fc Chimera, CF (R&D Systems Cat#3660-CD) (human, UniProt P16070 21-220); assay: as above
# T23 construct: Bought reagent
# [31] = biological target: T24, rHuman P-Cadherin/Fc Chimera, CF (R&D Systems Cat#861-PC) (human, UniProt P22223 108-654); assay: as above
# T24 construct: Bought reagent
# [32] = biological target: T25, rHuman EGF R/Fc Chimera, CF (R&D Systems Cat#344-ER) (human, UniProt P00533 25-645); assay: as above
# T25 construct: Bought reagent; also called epidermal growth factor receptor
# [33] = biological target: T26, rHuman HGF R/c-MET/Fc Chimera, CF (R&D Systems Cat#358-MT/CF) (human, UniProt P08581 25-932); assay: as above
# T26 construct: Bought reagent; also called HGF R/Fc; hepatocyte growth factor receptor
# [34] = biological target: T3, rHuman Erythropoietin R/Fc Chimera, CF …; assay: as above
binder,measurement,setting,value
B1,ECL signal,[1],845
same,ECL signal,[2],573
same,ECL signal,[3],611
same,ECL signal,[4],646
same,ECL signal,[5],1260
same,ECL signal,[6],666
same,ECL signal,[7],638
same,ECL signal,[8],616
same,ECL signal,[9],601
same,ECL signal,[10],425
same,ECL signal,[11],439
same,ECL signal,[12],458
same,ECL signal,[13],1340
same,ECL signal,[14],471
same,ECL signal,[15],452
same,ECL signal,[16],472
B2,ECL signal,[17],91400
same,ECL signal,[18],287
same,ECL signal,[19],541
same,ECL signal,[20],377
same,ECL signal,[21],543
same,ECL signal,[22],402
same,ECL signal,[23],413
same,ECL signal,[24],420
same,ECL signal,[25],323
B3,ECL signal,[26],175
same,ECL signal,[27],1030
same,ECL signal,[28],154
same,ECL signal,[29],137
same,ECL signal,[30],162
same,ECL signal,[31],51
same,ECL signal,[32],208
same,ECL signal,[33],222
same,ECL signal,[34],230
